Laboratory results reported in US20050282739A1.
Square brackets hold non-standard residues; d marks the D form. Ends that are not written are not given here. pGlu = O=C1CC[C@@H](C(=O)O)N1; Nle = CCCC[C@H](N)C(=O)O

B1: bombesin analog parent polypeptide D-Phe-Gln-Trp-Ala-Val-Gly-His-Leu-Leu-NH2 (peptide)
peptide: [dF]QWAVGHLL-NH2
modifications: N-terminus assumed
SMILES: CC(C)C[C@H](NC(=O)[C@H](CC(C)C)NC(=O)[C@H](Cc1c[nH]cn1)NC(=O)CNC(=O)[C@@H](NC(=O)[C@H](C)NC(=O)[C@H](Cc1c[nH]c2ccccc12)NC(=O)[C@H](CCC(N)=O)NC(=O)[C@H](N)Cc1ccccc1)C(C)C)C(N)=O
B2: metallopeptide 8-1 (peptide)
peptide: [dF]QWAVGHLLC-NH2
modifications: bridge (positions not given here) via ReOCl3(PPh3)2; also: oxorhenium(V) N3S1 tetradentate complex at Cys 10
B3: metallopeptide 8-2 (peptide)
peptide: [dF]QWAVGHLCL-NH2
modifications: bridge (positions not given here) via ReOCl3(PPh3)2; also: oxorhenium(V) N3S1 tetradentate complex at Cys 9
B4: metallopeptide 8-3 (peptide)
peptide: [dF]QWAVGHCLL-NH2
modifications: bridge (positions not given here) via ReOCl3(PPh3)2; also: oxorhenium(V) N3S1 tetradentate complex at Cys 8
B5: metallopeptide 8-4 (peptide)
peptide: [dF]QWAVGCHLL-NH2
modifications: bridge (positions not given here) via ReOCl3(PPh3)2; also: oxorhenium(V) N3S1 tetradentate complex at Cys 7
B6: metallopeptide 8-5 (peptide)
peptide: [dF]QWAVCGHLL-NH2
modifications: bridge (positions not given here) via ReOCl3(PPh3)2; also: oxorhenium(V) N3S1 tetradentate complex at Cys 6
B7: metallopeptide 8-6 (peptide)
peptide: [dF]QWACVGHLL-NH2
modifications: not fully specified (bridges); printed as D-Phe-Gln-Trp-Ala-Cys-Val-Gly-His-Leu-Leu-NH2; also: oxorhenium(V) N3S1 tetradentate complex at Cys 5
B8: metallopeptide 8-7 (peptide)
peptide: [dF]QWCAVGHLL-NH2
modifications: not fully specified (bridges); printed as D-Phe-Gln-Trp-Cys-Ala-Val-Gly-His-Leu-Leu-NH2; also: oxorhenium(V) N3S1 tetradentate complex at Cys 4
B9: metallopeptide 8-8 (peptide)
peptide: [dF]QCWAVGHLL-NH2
modifications: not fully specified (bridges); printed as D-Phe-Gln-Cys-Trp-Ala-Val-Gly-His-Leu-Leu-NH2; also: Re(V)=O chelate (N3S1) at Cys3
B10: metallopeptide 9-2 (peptide)
peptide: [dF]QWAVGHCL-NH2
modifications: not fully specified (bridges); printed as D-Phe-Gln-Trp-Ala-Val-Gly-His-Cys-Leu-NH2; also: Re(V)=O chelate (N3S1) at Cys8
B11: metallopeptide 9-3 (peptide)
peptide: [dF]QWAVGCLL-NH2
modifications: not fully specified (bridges); printed as D-Phe-Gln-Trp-Ala-Val-Gly-Cys-Leu-Leu-NH2; also: Re(V)=O chelate (N3S1) at Cys7
B12: metallopeptide 9-4 (peptide)
peptide: [dF]QWAVCHLL-NH2
modifications: not fully specified (bridges); printed as D-Phe-Gln-Trp-Ala-Val-Cys-His-Leu-Leu-NH2; also: Re(V)=O complexed at Cys (N3S1 chelate)
B13: metallopeptide 9-5 (peptide)
peptide: [dF]QWACGHLL-NH2
modifications: not fully specified (bridges); printed as D-Phe-Gln-Trp-Ala-Cys-Gly-His-Leu-Leu-NH2; also: Re(V)=O complexed at Cys (N3S1 chelate)
B14: metallopeptide 9-6 (peptide)
peptide: [dF]QWCVGHLL-NH2
modifications: not fully specified (bridges); printed as D-Phe-Gln-Trp-Cys-Val-Gly-His-Leu-Leu-NH2; also: Re(V)=O complexed at Cys (N3S1 chelate)
B15: metallopeptide 9-7 (peptide)
peptide: [dF]QCAVGHLL-NH2
modifications: not fully specified (bridges); printed as D-Phe-Gln-Cys-Ala-Val-Gly-His-Leu-Leu-NH2; also: Re(V)=O complexed at Cys (N3S1 chelate)
B16: metallopeptide 10-1 (peptide)
peptide: [dF]QWAVC[dH]LL-NH2
modifications: bridge (positions not given here) via ReOCl3(PPh3)2; also: oxorhenium(V) N3S1 tetradentate complex at Cys 6

target: bombesin receptor of rat brain membranes (rat); experiment: 125I-Bombesin competition, rat brain membranes

% Inhibition [%]	Binder
106	XQRLGNQWAVGHLM (not fully specified; pyroglutamic acid (Pyr) 1; C-terminal amide) [bombesin parent polypeptide Pyr-Gln-Arg-Leu-Gly-Asn-Gln-Trp-Ala-Val-Gly-His-Leu-Met-NH2]
82	[pGlu]QRLGNQWAVGHL[Nle]C-NH2 (also: oxorhenium(V) N3S1 chelate at Cys15) [metallopeptide 6-1]
91	XQRLGNQWAVGHLCX (Pyr 1; Nle 15; C-terminal amide; Re complexed at Cys 14) [metallopeptide 6-2]
71	[pGlu]QRLGNQWAVGHCL[Nle]-NH2 (also: Re(V)=O N3S1 chelate at Cys13 (from ReOCl3(PPh3)2)) [metallopeptide 6-3]
70	[pGlu]QRLGNQWAVGCHL[Nle]-NH2 (also: Re(V)=O N3S1 chelate at Cys12 (from ReOCl3(PPh3)2)) [metallopeptide 6-4]
67	[pGlu]QRLGNQWAVCGHL[Nle]-NH2 (also: Re(V)=O N3S1 chelate at Cys11 (from ReOCl3(PPh3)2)) [metallopeptide 6-5]
83	[pGlu]QRLGNQWACVGHL[Nle]-NH2 (also: Re(V)=O N3S1 chelate at Cys10 (from ReOCl3(PPh3)2)) [metallopeptide 6-6]
62	[pGlu]QRLGNQWCAVGHL[Nle]-NH2 (also: Re(V)=O N3S1 chelate at Cys9 (from ReOCl3(PPh3)2)) [metallopeptide 6-7]
75	[pGlu]QRLGNQCWAVGHL[Nle]-NH2 (also: Re(V)=O N3S1 chelate at Cys8 (from ReOCl3(PPh3)2)) [metallopeptide 6-8]
91	[pGlu]QRLGNCQWAVGHL[Nle]-NH2 (also: Re(V)=O N3S1 chelate at Cys7 (from ReOCl3(PPh3)2)) [metallopeptide 6-9]
93	[pGlu]QRLGCNQWAVGHL[Nle]-NH2 (also: oxorhenium(V) N3S1 chelate at Cys6) [metallopeptide 6-10]
97	[pGlu]QRCLGNQWAVGHL[Nle]-NH2 (also: Re(V)=O N3S1 chelate at Cys4 (from ReOCl3(PPh3)2)) [metallopeptide 6-12]
99	Ac-AQCRLGNQWAVGHL[Nle]-NH2 (also: Re(V)=O N3S1 chelate at Cys3 (from ReOCl3(PPh3)2)) [metallopeptide 6-13]
73	XQRLGNQWAVGHLC (Pyr 1; C-terminal amide; Re complexed at Cys 14) [metallopeptide 7-1]
66	XQRLGNQWAVGHCX (Pyr 1; Nle 14; C-terminal amide; Re complexed at Cys 13) [metallopeptide 7-2]
82	XQRLGNQWAVGCLX (Pyr 1; Nle 14; C-terminal amide; Re complexed at Cys 12) [metallopeptide 7-3]
81	XQRLGNQWAVCHLX (Pyr 1; Nle 14; C-terminal amide; Re complexed at Cys 11) [metallopeptide 7-4]
61	XQRLGNQWACGHLX (Pyr 1; Nle 14; C-terminal amide; Re complexed at Cys 10) [metallopeptide 7-5]
91	XQRLGNQWCVGHLX (Pyr 1; Nle 14; C-terminal amide; Re complexed at Cys 9) [metallopeptide 7-6]
-2	XQRLGNQCAVGHLX (Pyr 1; Nle 14; C-terminal amide; Re complexed at Cys 8) [metallopeptide 7-7]
84	XQRLGNCWAVGHLX (Pyr 1; Nle 14; C-terminal amide; Re complexed at Cys 7) [metallopeptide 7-8]

% Inhibition [%]	Binder
93	XQRLGCQWAVGHLX (Pyr 1; Nle 14; C-terminal amide; Re complexed at Cys 6) [metallopeptide 7-9]
95	XQRCGNQWAVGHLX (Pyr 1; Nle 14; C-terminal amide; Re complexed at Cys 4) [metallopeptide 7-11]
96	Ac-AQCLGNQWAVGHL[Nle]-NH2 (also: Re(V)=O N3S1 chelate at Cys3 (from ReOCl3(PPh3)2)) [metallopeptide 7-12]
92	B1
39	B2
75	B3
49	B4
59	B5
70	B6
35	B7
8	B8
62	B9
86	[dF]QWAVGHLC-NH2 (not fully specified (bridges); also: Re(V)=O chelate (N3S1) at Cys9) [metallopeptide 9-1]
35	B10
70	B11
75	B12
17	B13
43	B14
19	B15
10	B16
